Changes are numbered by the printed parent chain.
T1: FLP recombinase (Saccharomyces cerevisiae, UniProt P03870 P03870:1-423)
T1 sequence: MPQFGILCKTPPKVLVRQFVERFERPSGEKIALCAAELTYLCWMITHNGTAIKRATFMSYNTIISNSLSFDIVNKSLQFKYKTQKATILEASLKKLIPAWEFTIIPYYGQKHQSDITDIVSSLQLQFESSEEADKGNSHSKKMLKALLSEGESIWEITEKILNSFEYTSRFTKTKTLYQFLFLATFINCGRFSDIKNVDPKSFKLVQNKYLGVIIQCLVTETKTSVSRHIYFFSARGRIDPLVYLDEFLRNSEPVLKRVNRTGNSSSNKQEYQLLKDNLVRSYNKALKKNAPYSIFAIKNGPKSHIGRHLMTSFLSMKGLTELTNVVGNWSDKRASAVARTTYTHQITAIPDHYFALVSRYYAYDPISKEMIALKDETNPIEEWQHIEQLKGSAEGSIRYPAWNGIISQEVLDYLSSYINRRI

B1: f72 mutant FRT (dsDNA)
DNA 1: TCGAGGACGTCGAAGTTCCTATACTTTCTACAGAATAGGAACTTCTCCGGAA
DNA 2: CTAGTTCCGGAGAAGTTCCTATTCTGTAGAAAGTATAGGAACTTCGACGTCC
B2: f61 mutant FRT (dsDNA)
DNA 1: B1 DNA 1 with A30G, C31G
DNA 2: B1 DNA 2 with G26C, T27C
B3: F3 mutant FRT (dsDNA)
DNA 1: B1 DNA 1 with T26A, C28T, A30G, C31A
DNA 2: B1 DNA 2 with G26T, T27C, G29A, A31T
B4: f2161 mutant FRT (dsDNA)
DNA 1: B1 DNA 1 with T26C, A30G, C31G
DNA 2: B1 DNA 2 with G26C, T27C, A31G
B5: f2262 mutant FRT (dsDNA)
DNA 1: B1 DNA 1 with T26A, A30T, C31G
DNA 2: B1 DNA 2 with G26C, T27A, A31T
B6: f2151 mutant FRT (dsDNA)
DNA 1: B1 DNA 1 with T26C, T29C, C31G
DNA 2: B1 DNA 2 with G26C, A28G, A31G

Target: T1, FLP recombinase
Assay: recombination of two identical sites; same buffer
Settings: tags: untagged; expressed from recombinant adenovirus AxCAFLP (2 micron DNA FLP gene) in 293 cells; chain copies: 4
Procedure: Whether or not FLP-dependent recombination reaction caused between the two mutant FRT sequences was studied by the assay described below. The DraI-digested plasmid DNA (1.5 μg) prepared in Example 2 and the cell extract containing FLP (25 μl) prepared in Example 1 were added to buffer containing 50 mM Tris-HCl (pH 7.5)/10 mM MgCl₂/5 mM DTT in its final concentration (the volume of reaction solution: 50 μl), and the reaction mixture was incubated at 30° C. for 30 minutes. After the termination of the reaction, 200 μl of sterilized water and 50 […] of 20 mM EDTA solution (pH 8.0) were added to the reaction mixture. The reaction mixture was extracted with phenol/chloroform and with chloroform. The resulting product was precipitated with ethanol, to obtain DNA. The resulting DNA was then solubilized in 20 μl of TE buffer (pH 8.0) containing RNaseA (20 μg/ml). Next, an entire volume of the resultant was digested with restriction enzyme NcoI, and subjected to electrophoresis on agarose gel. Thereafter, DNA bands detected by ethidium bromide (EtBr) staining were analyzed.
In order to numerically express the reaction efficiency, the ratio of […] was calculated as the recombination ratio (%) between the two FRT sequences.

| Binder | activity [%] |
| --- | --- |
| B1 | 10.9 |
| B2 | 2.6 |
| B3 | 3.1 |
| B4 | 4.5 |
| B5 | 3.8 |
| B6 | 2.9 |
